# Columns and labels:
# [1] = target: cynomolgus monkey PD-L1 (cynomolgus monkey); test: FACS, CHO-K1/cyPD-L1 cells
# human CD40 (human) [2] = target: human CD40 (human) (UniProt P25942); test: FACS, CHO-K1/hCD40 cells
# human PD-L1 (human) [3] = target: human PD-L1 (human) (UniProt Q9NZQ7); test: FACS, NCI-H226 cells
# human CD40 (human) [4] = target: human CD40 (human) (UniProt P25942); test: FACS, Raji cells
# human PD-L1 (human) [5] = target: human PD-L1 (human) (UniProt Q9NZQ7); test: FACS, CHO-K1/hPD-L1 cells
# [6] = target: cynomolgus monkey CD40 (cynomolgus monkey); test: FACS, CHO-K1/cyCD40 cells
# human PD-L1 (human) [7] = target: human PD-L1 (human) (UniProt Q9NZQ7); test: cell-based or functional assay
# Chain of human PD-L1 (human) (Q9NZQ7 19-290): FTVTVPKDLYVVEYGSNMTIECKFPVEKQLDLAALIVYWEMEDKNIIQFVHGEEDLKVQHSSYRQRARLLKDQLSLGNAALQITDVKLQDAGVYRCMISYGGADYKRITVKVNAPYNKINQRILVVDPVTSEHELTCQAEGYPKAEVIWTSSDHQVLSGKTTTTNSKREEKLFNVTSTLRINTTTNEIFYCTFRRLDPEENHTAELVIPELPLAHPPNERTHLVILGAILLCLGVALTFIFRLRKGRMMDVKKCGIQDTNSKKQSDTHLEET
# Chain of human CD40 (human) (P25942 21-277): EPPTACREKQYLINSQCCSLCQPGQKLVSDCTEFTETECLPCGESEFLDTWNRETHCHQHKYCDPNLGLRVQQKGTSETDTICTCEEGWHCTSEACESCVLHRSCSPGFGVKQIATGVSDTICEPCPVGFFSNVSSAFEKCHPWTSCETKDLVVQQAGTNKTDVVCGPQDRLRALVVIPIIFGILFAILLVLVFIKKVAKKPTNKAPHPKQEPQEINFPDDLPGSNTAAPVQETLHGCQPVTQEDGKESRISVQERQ
Substance,Maximum MFI [1] [MFI],Maximum MFI (human CD40 (human) [2]) [MFI],Maximum MFI (human PD-L1 (human) [3]) [MFI],Maximum MFI (human CD40 (human) [4]) [MFI],Maximum MFI (human PD-L1 (human) [5]) [MFI],Maximum MFI [6] [MFI],"Maximum RLU, Jurkat-NFAT-hPD1 reporter (human PD-L1 (human) [7]) [RLU]"
Isotype (antibody),50,23,55,78,170,59,403
hIgG1 (antibody),,,,,86,,2370

# From patent US20250215089A1
